Laboratory results published in patent publication EP4628097A1 (Innovent Biologics (Suzhou) Co., Ltd., dated 2025).

Key:
[1] = target: Tie2-Fc (Beijing Sino Biological, Catalog No. 10700-H03H) (UniProt Q02763); assay: ELISA: biotin-Ang2 (0.2 ug/mL) on coated Tie2-Fc, no antibody (blank of the blocking assay)
human Ang2 = target: T1, human Ang2 (human, UniProt O15123 19-496, limits assumed); assay: blocking ELISA: biotinylated hAng2 on coated hTie2, antibody titrated from 300 nM
T1 construct: Bought proteins; also called hAng2-biotin; Ang2-Bio (Sino)
T1 sequence (looked up): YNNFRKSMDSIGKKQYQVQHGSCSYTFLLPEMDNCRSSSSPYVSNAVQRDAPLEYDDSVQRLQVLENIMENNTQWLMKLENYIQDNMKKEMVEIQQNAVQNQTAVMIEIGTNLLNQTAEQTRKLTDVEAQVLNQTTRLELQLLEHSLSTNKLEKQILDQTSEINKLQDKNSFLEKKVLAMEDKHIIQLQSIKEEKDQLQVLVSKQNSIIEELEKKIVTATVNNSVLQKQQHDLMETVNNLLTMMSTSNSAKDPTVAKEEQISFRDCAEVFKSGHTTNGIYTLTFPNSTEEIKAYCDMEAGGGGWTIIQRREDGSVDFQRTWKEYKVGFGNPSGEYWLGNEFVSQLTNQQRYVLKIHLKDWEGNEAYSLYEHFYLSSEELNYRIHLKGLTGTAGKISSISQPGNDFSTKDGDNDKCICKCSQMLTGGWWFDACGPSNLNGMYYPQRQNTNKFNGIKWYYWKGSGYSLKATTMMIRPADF

human VEGF165 = target: T2, human VEGF165 (human, UniProt P15692-4 27-191); assay: BLI (ForteBio), bivalent binding; * exceeds ForteBio detection limit
T2 construct: all are put under this molecule; also called VEGF A; VEGFA
T2 sequence (P15692 other isoform, or with tags, fused parts or gaps limits assumed): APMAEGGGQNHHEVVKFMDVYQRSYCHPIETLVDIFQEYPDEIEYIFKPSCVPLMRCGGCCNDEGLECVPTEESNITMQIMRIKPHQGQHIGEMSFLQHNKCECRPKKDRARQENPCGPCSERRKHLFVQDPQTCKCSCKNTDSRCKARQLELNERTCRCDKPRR

Chain of Tie2-Fc (Beijing Sino Biological, Catalog No. 10700-H03H) (Q02763 23-745 limits assumed): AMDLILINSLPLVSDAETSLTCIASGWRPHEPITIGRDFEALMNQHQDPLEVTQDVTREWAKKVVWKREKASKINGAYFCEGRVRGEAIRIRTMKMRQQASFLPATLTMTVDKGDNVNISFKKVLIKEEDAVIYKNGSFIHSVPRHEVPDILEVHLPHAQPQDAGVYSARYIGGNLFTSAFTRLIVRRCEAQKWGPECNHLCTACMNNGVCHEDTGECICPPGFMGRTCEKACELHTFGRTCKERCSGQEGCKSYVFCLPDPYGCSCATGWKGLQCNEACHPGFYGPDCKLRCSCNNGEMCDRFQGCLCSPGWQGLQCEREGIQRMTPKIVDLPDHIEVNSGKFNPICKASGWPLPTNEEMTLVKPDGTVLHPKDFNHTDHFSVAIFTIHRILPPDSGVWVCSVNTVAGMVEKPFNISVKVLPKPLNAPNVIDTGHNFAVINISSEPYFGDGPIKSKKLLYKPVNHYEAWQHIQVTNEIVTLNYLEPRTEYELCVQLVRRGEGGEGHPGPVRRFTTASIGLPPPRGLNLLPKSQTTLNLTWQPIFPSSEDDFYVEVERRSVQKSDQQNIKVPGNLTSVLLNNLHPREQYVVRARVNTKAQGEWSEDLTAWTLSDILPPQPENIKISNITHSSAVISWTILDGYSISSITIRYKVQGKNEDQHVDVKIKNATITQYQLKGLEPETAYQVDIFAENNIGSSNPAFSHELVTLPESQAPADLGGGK

## human Ang2 (from UniProt O15123 19-496) (ligand)
[1]
  OD450nm: 3.45 OD450nm

B1: IEX04-008 (bispecific antibody)
chain: EVQLLESGGGLVQPGGSLRLSCAASGSIFSINAMGWHRQAPGKQRELVATMIGGSSTFYAESVQGRFTISRDNSKNTVYLQMNSLRAEDTAVYYCYADVTGRSGTSIWNKRDDYWGQGTQVTVSSGGGGSGGGGSEVQLLESGGGLVQPGGSLRLSCAASGSIFSINAMGWHRQAPGKQRELVATMIGGSSTFYAESVQGRFTISRDNSKNTVYLQMNSLRAEDTAVYYCYADVTGRSGTSIWNKRDDYWGQGTQVTVSSGGGGSGGGGSEVQLLESGGGLVQPGGSLRLSCAASGFALDYYAIGWFRQAPGKGLEGVSCISSGEGSTYYADSVKGRFTISRDNSKNTVYLQMNSLRAEDTAVYYCATDSRGDDVACEGLRRNEYDYWGQGTLVTVSS
notes: expressed in 293 cells; also called LA46E11.8 (VHH) + linker + LA46E11.8 (VHH) + LA24C11.10
Human Ang2
  binding result: binds

B2: LA46E11 (VHH)
VHH: QVQLEESGGGLVQPGGSLRLSCVASGSIFSINAMGWHRQAPGSQRELVATMIGGSSTFYADSVNGRFTISRDNAKNTVYLQMNSLKLEDTAVYYCYADVTGRSGTSIWNKRDDYWGQGTLVTVSS
notes: Alpaca immune-library VHH; also called LA46E11 (VEGFA VHH); anti-VEGF A VHH antibody
Human VEGF165
  koff: ≤ 0.0002 s⁻¹
